Source: US20170151309A1
Read-outs that look alike come from different tables or passages of the source.

Columns and labels:
Experiment in all cases: cell-based or functional assay
[1] = target: adiponectin receptor 1 (human) (UniProt Q96A54)
[2] = target: adiponectin receptor 2 (human) (UniProt Q86V24)
[3] = target: adiponectin receptor 1 (human) (UniProt Q96A54); remark: listed apart in the source
[4] = target: adiponectin receptor 2 (human) (UniProt Q86V24); remark: listed apart in the source

Chain of adiponectin receptor 1 (human) (Q96A54 whole entry): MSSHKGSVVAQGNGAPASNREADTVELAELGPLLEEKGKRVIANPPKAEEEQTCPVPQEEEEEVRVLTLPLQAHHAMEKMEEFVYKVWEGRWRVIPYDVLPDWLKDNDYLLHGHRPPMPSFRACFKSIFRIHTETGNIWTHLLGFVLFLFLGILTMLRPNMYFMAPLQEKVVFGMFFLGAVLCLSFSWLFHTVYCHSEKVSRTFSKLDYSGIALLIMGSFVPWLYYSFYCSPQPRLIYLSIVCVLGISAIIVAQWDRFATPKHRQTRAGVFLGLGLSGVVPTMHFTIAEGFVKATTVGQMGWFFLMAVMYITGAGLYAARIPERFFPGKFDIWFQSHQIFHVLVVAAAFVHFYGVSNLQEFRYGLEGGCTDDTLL
Chain of adiponectin receptor 2 (human) (Q86V24 whole entry): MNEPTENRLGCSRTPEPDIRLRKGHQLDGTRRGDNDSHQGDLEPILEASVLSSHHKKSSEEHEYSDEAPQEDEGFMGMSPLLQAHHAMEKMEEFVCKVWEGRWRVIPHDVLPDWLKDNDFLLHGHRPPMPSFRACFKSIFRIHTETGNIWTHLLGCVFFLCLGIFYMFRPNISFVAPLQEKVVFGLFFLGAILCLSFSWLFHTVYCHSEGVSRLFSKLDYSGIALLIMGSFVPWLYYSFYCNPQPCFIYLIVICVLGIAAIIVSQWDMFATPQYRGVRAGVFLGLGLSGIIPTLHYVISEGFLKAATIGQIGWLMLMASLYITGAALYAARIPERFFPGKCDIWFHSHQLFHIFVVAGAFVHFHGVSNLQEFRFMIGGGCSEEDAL

EC50 of inhibition of PBL transendothelial migration (static adhesion assay) [1]: 0.04 µM | EC50 of inhibition of PBL transendothelial migration (static adhesion assay) [2]: 0.04 µM | EC50 of inhibition of PBL transendothelial migration (static adhesion assay) [3]: 0.94 mg/L | EC50 of inhibition of PBL transendothelial migration (static adhesion assay) [4]: 0.94 mg/L
Substance: adiponectin (from UniProt Q15848 19-244) (ligand)
